Values of other authors as cited in PMC3621282.

Molecular target: VEGFR-2 (Homo sapiens) (UniProt P35968)
Chain of UniProt P35968 (P35968 20-1356): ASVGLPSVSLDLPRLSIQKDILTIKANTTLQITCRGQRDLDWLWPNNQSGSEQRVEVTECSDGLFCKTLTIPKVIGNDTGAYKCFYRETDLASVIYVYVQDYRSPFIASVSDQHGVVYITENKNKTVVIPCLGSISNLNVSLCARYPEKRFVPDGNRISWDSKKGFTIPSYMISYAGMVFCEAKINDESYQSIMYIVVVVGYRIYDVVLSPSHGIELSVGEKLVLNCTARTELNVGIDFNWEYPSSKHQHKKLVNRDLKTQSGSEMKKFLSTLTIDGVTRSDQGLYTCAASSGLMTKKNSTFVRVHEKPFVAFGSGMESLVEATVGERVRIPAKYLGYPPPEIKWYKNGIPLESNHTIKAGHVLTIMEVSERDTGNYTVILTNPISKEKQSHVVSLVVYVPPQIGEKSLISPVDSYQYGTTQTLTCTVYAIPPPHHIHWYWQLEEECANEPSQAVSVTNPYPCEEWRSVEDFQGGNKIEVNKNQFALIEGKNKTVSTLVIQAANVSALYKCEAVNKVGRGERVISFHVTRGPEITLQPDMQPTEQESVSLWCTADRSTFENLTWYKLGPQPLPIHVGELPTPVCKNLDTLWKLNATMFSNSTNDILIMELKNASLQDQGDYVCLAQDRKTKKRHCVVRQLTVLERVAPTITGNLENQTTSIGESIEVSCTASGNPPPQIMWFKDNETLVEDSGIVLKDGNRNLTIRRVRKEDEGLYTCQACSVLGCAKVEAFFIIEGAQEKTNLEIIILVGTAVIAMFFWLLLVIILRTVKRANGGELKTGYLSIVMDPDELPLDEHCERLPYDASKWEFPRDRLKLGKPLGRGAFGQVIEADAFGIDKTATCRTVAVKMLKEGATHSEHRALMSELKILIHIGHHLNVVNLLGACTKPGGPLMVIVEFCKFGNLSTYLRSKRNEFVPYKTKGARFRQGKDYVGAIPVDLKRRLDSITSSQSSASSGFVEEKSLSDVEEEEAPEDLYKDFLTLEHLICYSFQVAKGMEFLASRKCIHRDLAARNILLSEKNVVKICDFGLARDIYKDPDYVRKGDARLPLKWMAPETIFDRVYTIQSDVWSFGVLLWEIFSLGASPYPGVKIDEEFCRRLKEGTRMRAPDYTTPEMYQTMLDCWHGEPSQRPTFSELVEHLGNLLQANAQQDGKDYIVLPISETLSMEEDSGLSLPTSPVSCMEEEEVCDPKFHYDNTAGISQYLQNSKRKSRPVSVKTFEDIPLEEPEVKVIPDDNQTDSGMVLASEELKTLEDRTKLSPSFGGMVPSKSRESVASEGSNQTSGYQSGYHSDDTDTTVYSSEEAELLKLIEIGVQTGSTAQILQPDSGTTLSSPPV

- Kd: 100 pM
Substance: VEGF (from UniProt P15692)
